Data from PMC5379955.

Target: ROD (human) (UniProt P50748)
Experiment: AUC

ROD, P50748 1-2209 showed a stoichiometry N of 2.
